The target of test [1] is T1, JAK2 (Homo sapiens, UniProt O60674). As to the kind of experiment: SPA: binding of 3H-JAK2 to βc peptides on streptavidin-coated beads. More on the design: NJAK2 = N-terminal 294 residues. To be noted: for activity of C-terminal deletion peptide in the SPA: excess peptide, κ-casein 1 mg/ml; for activity profile in binding 3H-JAK2 (signal): less than saturating peptide, 40 pmole per reaction, FIG. 12A; for overall signals and signal-to-noise ratios, peptide and labeled JAK2 mixed prior to adding beads / activity profile, peptide and labeled JAK2 mixed prior to adding beads: mixed one hour before beads, FIG. 13; for overall signals and signal-to-noise ratios, peptide and labeled JAK2 mixed prior to adding beads: versus peptide bound to bead first; for signal: κ-casein included throughout the assay. The procedure: Cells were lysed by dounce homogenization (20 strokes) in 1X phosphate buffered saline (PBS), pH 7.5 at 4 C. […] For some experiments, the JAK2 protein (0.15 mg/ml), aliquoted into 7 equivalent tubes, was then subjected to ultracentrifugation in an Airfuge using an A-110 rotor at an average of 164,000×g for a period of 6 hours at ambient temperature. At zero time, and at each subsequent hour thereafter, a tube of JAK2 was removed for analyses (ELISA, SDS polyacrylamide gel electrophoresis, and Western blotting).
T1 sequence (O60674 3-1132): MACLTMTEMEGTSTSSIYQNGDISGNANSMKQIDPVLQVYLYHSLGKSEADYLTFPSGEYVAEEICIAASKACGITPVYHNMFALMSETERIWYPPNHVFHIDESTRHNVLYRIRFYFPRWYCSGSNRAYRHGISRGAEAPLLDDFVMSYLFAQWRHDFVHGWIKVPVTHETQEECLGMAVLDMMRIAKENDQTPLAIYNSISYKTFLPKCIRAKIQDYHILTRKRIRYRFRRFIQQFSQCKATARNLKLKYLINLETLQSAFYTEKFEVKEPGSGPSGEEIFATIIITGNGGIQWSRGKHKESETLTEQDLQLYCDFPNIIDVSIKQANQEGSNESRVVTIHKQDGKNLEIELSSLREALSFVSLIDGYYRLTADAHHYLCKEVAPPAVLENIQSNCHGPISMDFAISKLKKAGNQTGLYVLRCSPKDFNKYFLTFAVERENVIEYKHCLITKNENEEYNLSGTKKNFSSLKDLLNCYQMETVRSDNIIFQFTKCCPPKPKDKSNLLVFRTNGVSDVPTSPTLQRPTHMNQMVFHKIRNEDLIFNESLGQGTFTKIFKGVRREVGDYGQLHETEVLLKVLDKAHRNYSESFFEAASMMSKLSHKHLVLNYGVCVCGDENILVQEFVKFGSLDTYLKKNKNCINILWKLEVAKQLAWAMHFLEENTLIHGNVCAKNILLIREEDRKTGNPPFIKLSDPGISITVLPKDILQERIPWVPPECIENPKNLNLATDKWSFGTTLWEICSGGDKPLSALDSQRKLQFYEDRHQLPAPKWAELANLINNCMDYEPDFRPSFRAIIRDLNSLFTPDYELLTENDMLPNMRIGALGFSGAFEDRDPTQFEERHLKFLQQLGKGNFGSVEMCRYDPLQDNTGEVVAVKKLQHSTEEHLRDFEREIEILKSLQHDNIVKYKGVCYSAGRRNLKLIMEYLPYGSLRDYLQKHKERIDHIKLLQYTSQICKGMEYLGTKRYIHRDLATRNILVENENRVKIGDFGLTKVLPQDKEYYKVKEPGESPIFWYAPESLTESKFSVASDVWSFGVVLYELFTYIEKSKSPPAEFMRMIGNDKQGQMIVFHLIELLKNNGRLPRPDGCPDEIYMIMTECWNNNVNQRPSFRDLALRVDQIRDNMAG
(§1) Three different labeling reactions were done using ^3 H-N-succinimidyl propionate (^3 H-NSP, Amersham Life Sciences, Arlington Heights, Ill.). One reaction was done using 0.5 mg of purified JAK2 in 0.1 M borate buffer, pH 8.5, with a reaction volume of 150 μl and an incubation time of one hour on ice with dried 1 mCi of ^3 H-NSP (toluene was removed using a stream of nitrogen). […] Another reaction was done using the buffer 0.1 M sodium phosphate, pH 8.0, and a similar volume as before. One milligram of JAK2 in 1.2 ml of phosphate buffer was incubated for three hours on ice. […] A third reaction was done using 2.5 mg of purified JAK2 in 0.1 m sodium phosphate, pH 8.0, and 2.5 ml volume. It was incubated with 5 mCi of dried ^3 H-NSP on ice for 2 hours. […] All three products were separated from unincorporated label using PD-10 columns (Pharmacia Biotech, Uppsala, Sweden) pre-equilibrated with 20 mM Tris, pH 8.0, 0.15 M NaCl.
(§2) Triplicate reactions were done for each data point. The buffer used in all the assays was 35 mM sodium phosphate, 150 mM NaCl, pH 8.0, 10% glycerol. Biotinylated peptides were allowed to bind to streptavidin-coated SPA beads (Amersham Life Sciences, Arlington Heights, Ill., catalog # RPNQ0006) with either less than saturating peptide or excess peptide. […] Under less than saturating conditions, beads and 40 pmole peptide were added to the assay plate well and incubated for one hour with gentle shaking on a Titer plate shaker (Lab-Line Instruments, Inc., Melrose Park, Ill.) at 600 rpm and not washed. […] The plates were then read on a MicroBeta (Wallac) set to read scintillation due to tritium.
(§3) Either ^3 H-JAK2 or ^3 H-NJAK2 was added to the wells and, after incubation, the signals measured. […] A competition reaction was also done by adding 5 to 10-fold excess unlabeled JAK2 in those reactions.

The test system of test [2] is βc/JAK2 binding. As to the kind of experiment: Effect of blocking agents, detergents and DTT on the SPA (signal, background). Set-up: species or system human. The procedure: as §2
Test [3] deals with NJAK2 (N-terminal portion of JAK2) (Homo sapiens, UniProt O60674). The test can be described thus: SPA: binding of 3H-NJAK2 (N-terminal JAK2) to βc peptides on streptavidin-coated beads. The following applies: less than saturating peptide, 40 pmole per reaction, FIG. 12B. The procedure:
as §1, §2, §3

The target of test [4] is T1, JAK2. As to the kind of experiment: ELISA binding of JAK2 to immobilized βc peptides. More on the design: Y918N clone error corrected to Tyr. The following applies: for binding of JAK2 (ELISA): biotinylated peptides on streptavidin plate; for binding of JAK2 (ELISA) / saturation of JAK2 binding at 0.4 μM peptide (ELISA): FIG. 24. The procedure:
βc peptides corresponding to the proposed JAK2 binding domain (Table 1) were serially diluted and bound 16 hours at room temperature to streptavidin coated 96-well plates (Boehringer-Mannheim, Indianapolis, Ind.) and blocked at 37° with 1% fetal bovine serum in PBS. JAK2 protein was serially diluted on the plate and allowed to bind for 1 hour at room temperature. Plates were washed between incubations with ELISA wash (PBS with 0.04% TWEEN 20). Detection was via anti-FLAG antibody (10 μg/ml, Kodak, New Haven, Conn.) followed by anti-mouse Ig conjugated to peroxidase (1:5000 dilution, Boehringer Mannheim) and 1 mg/ml 2,2'-azinobis(3-ethylbenzthiazolinesulfonic acid) (Sigma), 0.003% H2 O2, 28 mM citric acid, 44 mM Na2 HPO4.
The ELISA assay worked best when the biotinylated βc peptides were immobilized on a streptavidin 96-well plate and the JAK2 was allowed to bind. A dual titration of βc peptides vs. JAK2 was performed (FIG. 24). Peptide 1 [SEQ ID NO:11] (FIG. 24 A) and peptide 2 [SEQ ID NO:12] […] Because 0.4 μM peptide was calculated to saturate the number of biotin binding sites in each well, it was expected that the amount of JAK2 binding should saturate at this quantity of peptide. […] (FIGS. 24 C and D) but peptides 5 and 6 [SEQ ID NOS:15 and 16]

For test [5], the target named is T1, JAK2. The test can be described thus: SPA competition: soluble peptide/streptavidin against peptide 4-coated SPA beads for binding 3H-JAK2. More on the design: Y918N clone error corrected to Tyr. The text has this:
FIGS. 20 A and B illustrate a test of the ability of streptavidin-peptide 4 complexes to compete for binding of 3H-JAK2 to peptide 4-coated SPA beads. For A, #0 is a beads only control. In all reactions with peptide bound to beads, excess peptide 4 [SEQ ID NO:14] was bound to beads before adding soluble samples. The reaction in #1 is peptide 4 [SEQ ID NO:14] bound to beads only, no added peptide 4 [SEQ ID NO:14] or streptavidin. #2 contained soluble peptide 4/streptavidin at a ratio of 1:1. #3 contained soluble peptide 4/streptavidin at a ratio of 4:1. #4 contained 20 μM peptide 4 added as soluble peptide 4. #5 contained 20 μM streptavidin. […] For B, 0 is a beads only control. In all reactions with peptide bound to beads, excess peptide 4 was bound to beads in the presence of 1 mg/ml κ-casein (as described in Materials and Methods of Example 8) before adding soluble samples. The reaction in #1 is peptide 4 bound to beads only, no added peptide 4 or streptavidin. #2 contained peptide 1/streptavidin at a ratio of 4:1 and #3 contained peptide 4/streptavidin at a ratio of 4:1.
The assay was set up in 96-well plates (Wallac, catalog # 1450-401), Turku, Finland, using a total assay volume of 200, μl/well. Triplicate reactions were done for each data point. The buffer used in all the assays was 35 mM sodium phosphate, 150 mM NaCl, pH 8.0, 10% glycerol. Biotinylated peptides were allowed to bind to streptavidin-coated SPA beads (Amersham Life Sciences, Arlington Heights, Ill., catalog # RPNQ0006) with either less than saturating peptide or excess peptide. For 400 μg SPA beads used per reaction, there was the capacity to bind 49 pmole of biotin (given the binding capacity of 121 pmole biotin/mg bead). Under less than saturating conditions, beads and 40 pmole peptide were added to the assay plate well and incubated for one hour with gentle shaking on a Titer plate shaker (Lab-Line Instruments, Inc., Melrose Park, Ill.) at 600 rpm and not washed. Under conditions of excess peptide, beads and peptide (80 pmole of peptide per 400 μg of bead) were mixed in batch with or without 1 mg/ml K-casein added as described in Results and Discussion, incubated for one hour with rotation, washed three times with buffer and aliquotted into wells. ^3 H-JAK2 or ^3 H-NJAK2 and any other components to be tested were added and the reactions were mixed and incubated for one hour in the dark at room temperature. The plates were then read on a MicroBeta (Wallac) set to read scintillation due to tritium.
The ability of excess peptide 4 [SEQ ID NO: 14] to compete for binding of JAK2 was tested. Biotinylated peptide 4 was bound to streptavidin in solution to mimic the conditions of the peptide 4 bound to the beads. It was used at a ratio of 1:1 (peptide 4: streptavidin) and at a ratio of 4:1 to see whether having multiple peptides on one streptavidin molecule might do a better job of binding JAK2 and therefore of competing. […] This could be due to the free streptavidin pulling some of the peptide 4 [SEQ ID NO: 14] off the bead. […] Another SPA was done using peptide 4 [SEQ ID NO:14] or peptide 1 [SEQ ID NO:11] bound to streptavidin at a ratio of 4:1. […] The results are shown in panel B of FIG. 20.

Sequence of NJAK2 (N-terminal portion of JAK2) (O60674 1-294 S277G): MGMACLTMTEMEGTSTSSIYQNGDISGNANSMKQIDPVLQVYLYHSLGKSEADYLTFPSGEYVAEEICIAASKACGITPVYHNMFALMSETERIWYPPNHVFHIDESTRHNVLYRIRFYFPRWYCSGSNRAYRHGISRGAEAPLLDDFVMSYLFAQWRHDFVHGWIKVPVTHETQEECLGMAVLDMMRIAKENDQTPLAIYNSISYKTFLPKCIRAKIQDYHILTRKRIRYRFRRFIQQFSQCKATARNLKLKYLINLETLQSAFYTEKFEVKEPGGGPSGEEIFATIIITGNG

Consider “GIYGYRLRRKWEEKIPN [CTD-4, C-terminal deletion of peptide 4]”, for which the “activity of C-terminal deletion peptide in the SPA” value in test [1] (32.5 nM labeled JAK2, FIG. 21A) was “slight decrease in the activity”.

Consider bovine serum albumin [BSA], for which, in test [2] (BSA 0.1 or 0.5 mg/ml, FIG. 16), the effect on background result is on record as “no effect” and the effect on signal result was “slight positive effect”.

For κ-casein, the “effect on signal and background” value in test [2] (κ-casein during binding of excess peptide to beads, washed away, FIG. 15) was “decreases both signal and background”.

Take “YRLRRKWEEKIPNPSKSHLFQNGSAELWP [peptide 3, βc peptide, N-terminal truncation]”: the “activity profile in binding 3H-NJAK2 (signal)” value in test [3] was “peptide 4>peptide 3>peptide 5>peptide 6>peptides 1 and 2”. Moreover, in test [1], the “suitability in the SPA” value is “two most optimal”; the “activity profile in binding 3H-JAK2 (signal)” value was “peptide 4>peptide 3>peptide 5>peptide 6>peptides 1 and 2”. For the same compound, in test [4], the “suitability for the ELISA” value is recorded as “appear optimal”.

Consider “GIYGYRLRRKWEE [CTD-5, C-terminal deletion of peptide 4]”, for which the “activity of C-terminal deletion peptide in the SPA” value in test [1] (10 nM labeled JAK2, FIG. 21B) is on record as “as active as peptide 4”.

For the compound “EKIPNPSKSHLFQNGSAELWP [peptide 1, βc peptide, N-terminal truncation]”, the “activity profile in binding 3H-NJAK2 (signal)” value in test [3] was “gave no signal”. Moreover, in test [1], the “activity profile in binding 3H-JAK2 (signal)” value is given as “gave no signal”; the “overall signals and signal-to-noise ratios, peptide and labeled JAK2 mixed prior to adding beads” value was “lower overall signals and signal-to-noise ratios”; the “activity profile, peptide and labeled JAK2 mixed prior to adding beads” value was “same activity profile”; the signal result is listed as “very little signal”. Further, in test [4], the “binding of JAK2 (ELISA)” value is on record as “no binding activity”. The “competition for binding of JAK2” value in test [5] (peptide/streptavidin 4:1, beads with 1 mg/ml κ-casein, FIG. 20B) is given as “decrease in signal”.

Take “RKWEEKIPNPSKSHLFQNGSAELWP [peptide 2, βc peptide, N-terminal truncation]”: the “activity profile in binding 3H-NJAK2 (signal)” value in test [3] is on record as “gave no signal”. Also, the “activity profile in binding 3H-JAK2 (signal)” value in test [1] is listed as “gave no signal”. Besides, the “binding of JAK2 (ELISA)” value in test [4] is “no binding activity”.

With “FCGIYGYRLRRKWEEKIPNPSKSHLFQNGSAELWP [peptide 5, βc peptide, N-terminal truncation]”, the “activity profile in binding 3H-NJAK2 (signal)” value in test [3] is “peptide 4>peptide 3>peptide 5>peptide 6>peptides 1 and 2”. For the same compound, in test [1], the “activity profile in binding 3H-JAK2 (signal)” value is “peptide 4>peptide 3>peptide 5>peptide 6>peptides 1 and 2”. Moreover, the “saturation of JAK2 binding at 0.4 μM peptide (ELISA)” value in test [4] is “did not show saturation”.

Take streptavidin [reference compound]: in test [5] (20 μM streptavidin, FIG. 20A), the “signal with streptavidin alone” value is recorded as “decreases the signal to a greater extent than streptavidin with peptide 4”.

With `O[C@H](CS)[C@H](O)CS` (racemic) [dithiothreitol], in test [2] (0.1 or 1 mM DTT with Brij 35 0.0025%, FIG. 19B), the “additional effect of dithiothreitol” value was “no obvious additional effect”.

For the compound “LALRFCGIYGYRLRRKWEEKIPNPSKSHLFQNGSAELWP [peptide 6, βc peptide]”, in test [3], the “activity profile in binding 3H-NJAK2 (signal)” value is “peptide 4>peptide 3>peptide 5>peptide 6>peptides 1 and 2”. In addition, in test [1], the “activity profile in binding 3H-JAK2 (signal)” value is “peptide 4>peptide 3>peptide 5>peptide 6>peptides 1 and 2”; the “overall signals and signal-to-noise ratios, peptide and labeled JAK2 mixed prior to adding beads” value is “lower overall signals and signal-to-noise ratios”; the “activity profile, peptide and labeled JAK2 mixed prior to adding beads” value is given as “same activity profile”; the signal result is “very little signal”. In addition, the “saturation of JAK2 binding at 0.4 μM peptide (ELISA)” value in test [4] is listed as “did not show saturation”.
